Data published in the DeepSol protein solubility set.

Test: soluble on expression in E. coli; label from the status in PepcDB or PDB records

Row | Sequence | soluble on expression in E. coli
1 | MTVNDKKRLAIIGGGPGGLAAARVFSQSLPNFEIEIFVKDYDIGGVWHYPEQKSDGRVMYDHLETNISKKLMQFSGFPFEENVPLYPSRRNIWEYLKAYYKTFIANKDAISIHFSTEVTYLKKKNSQWEITSKDELRTTKSDFDFVIVASGHYSVPKLPTNIAGLDLWFDNKGAFHSKDFKNCEFAREKVVIVVGNGSSGQDIANQLTTVAKKVYNSIKEPASNQLKAKLIETVQTIDSADWKNRSVTLSDGRVLQNIDYIIFATGYYYSFPFIEPSVRLEVLGEGVTGDKHSSVNLHNLWEHMIYVKDPTLSFILTPQLVIPFPLSELQAAIMVEVFCKSLPITTTFDSNACGTHNFPKERTWNTMQNYRNY | soluble
2 | MGSDKIHHHHHHMTTTSPDISRFGPIGLVVIQSTSLCNLDCSYCYLPDRKSRKIFDLELLPLLMQRIFESPFFGEELSLVWHAGEPLTLPCSYYDRATQLINEAVEQWTNGTVHVEQHVQTNATLINDAWCECFRRNKIIVGISVDGPKDIHDANRCFGNGEGSHVHSMRGIEALKRNKIPFHAIAVVTATAMDHPNEMYQFFRDNEIHSVGFNVEEQEGEHTSSSMQGYEREEQYRQFLESFWQLSEQDGFPVVLREFDQVISLIRENRRLNQNELNRPYSILSVDWQGNFSTFDPELLSVSSKLYGTFDLGSIRNISLMEAAKTERFQTLWKDMLSGVKRCEKECNYFGFCGGGMGSNKFWEHGSLNCSETNACRFNNKIPVDVLLDRFKSSPPIDNETPF | not soluble
3 | MASDVTVNVSAEKQVIRGFGGMNHPAWAGDLTAAQRETAFGNGQNQLGFSILRIHVDENRNNWYKEVETAKSAVKHGAIVFASPWNPPSDMVETFNRNGDTSAKRLKYNKYAAYAQHLNDFVTFMKNNGVNLYAISVQNEPDYAHEWTWWTPQEILRFMRENAGSINARVIAPESFQYLKNLSDPILNDPQALANMDILGTHLYGTQVSQFPYPLFKQKGAGKDLWMTEVYYPNSDTNSADRWPEALDVSQHIHNAMVEGDFQAYVWWYIRRSYGPMKEDGTISKRGYNMAHFSKFVRPGYVRIDATKNPNANVYVSAYKGDNKVVIVAINKSNTGVNQNFVLQNGSASNVSRWITSSSSNLQPGTNLTVSGNHFWAHLPAQSVTTFVVNRLEHHHHHHHH | soluble
4 | MTVPPTATHQPWPGVIAAYRDRLPVGDDWTPVTLLEGGTPLIAATNLSKQTGCTIHLKVEGLNPTGSFKDRGMTMAVTDALAHGQRAVLCASTGNTSASAAAYAARAGITCAVLIPQGKIAMGKLAQAVMHGAKIIQIDGNFDDCLELARKMAADFPTISLVNSVNPVRIEGQKTAAFEIVDVLGTAPDVHALPVGNAGNITAYWKGYTEYHQLGLIDKLPRMLGTQAAGAAPLVLGEPVSHPETIATAIRIGSPASWTSAVEAQQQSKGRFLAASDEEILAAYHLVARVEGVFVEPASAASIAGLLKAIDDGWVARGSTVVCTVTGNGLKDPDTALKDMPSVSPVPVDPVAVVEKLGLA | soluble
5 | GPGSMSTFETVKEEKLEFEKNCDQHIYEKALLTFKGVDGMDVYNCSAPFKYEGRTHIFGRVEKRLEWANSYVRLFVETNKDEFTLVPGNMVWQLEDPFVSNIDNEMFLGGTHIRKTNNRVFTYYCDFFRGTAENLSYFTTGPDNMKDIRLVKLANNKIGVFSRPKTAAHAFIGFTVINNVMELTPTVIEEAPPLNVIHTGAWGGVNQAYLLSSDKLGCISHYSYIDKDEDGNEITVYTNYSFVLNPYLREVEDARIIGTKGCYPKCSPKVHKLLDCAFSSGIVMREDGRCDLYSGLGDAHEGRITIDYPFEGHGTLIDNLHF | soluble
6 | MSLEKAPHLTILVSIDGFRADYLDRGDTPVMKALAENGARAAMRPSFPSVTFPNHYTLITGKRPDRNGIVANTMVDPSVSAEKFTMRSLDPAWWSQAKPFWVSVEQQGKRAAAMFWPGSEVEIDGVRPSRWVKFDQTMPGDARVDQVLNWLDSADGPPIAFSTLYFDIVDTQGHHYGPESPEVRAAAASVDAALGRLVAGLKARGRFESTDIVIVADHGMAPLPAANRVVLDDLVDVSKIRLVTTGAVTAFSPMPGERKAVEAAFLSKPLPHMTCWKKNRIPARFHYGRNSRVPAIVCLSETGWYTTTEAAKQKPSEWDGKDGGAHGFDPYDPTMQAVFVAHGPSFKSGVALPAFDNVDVYALLAKVTGVRPEKTDGSLKVVREEGHHHHHH | not soluble
7 | MTVDDIMVPRSEIIGIDINDDWKSILRQLSHSPHGRIVLYRDSLDDAISMLRVREAWRLMSEKKEFTKETMLRAADEIYFVPEGTPLSTQLVKFQRNKKKVGLVVNEYGDIQGLVTVEDILEEIVGDFTTSMSPTLAEEVTPQNDGSVIIDGTANVREINKAFNWHLPEDDARTVNGVILEALEEIPVAGTRVRIGKYDIDILDVQDNMIKQVKVFPVKPLRESVAE | not soluble
8 | MGSDKIHHHHHHMNMPNSFSNSHIYLGNVMHRRFSPKKHSFDYRLFMLALDVADVEKAQGGFGVFGFSWYRPLRFVETDYLKESIKDNSKDNLAGDPRSLSHRIKNKVHELAGYADIKRIVMLVQVRCFGIYFSPANFYFCYDQDDKCTQMLAEVSNTPWNERHYYLVDLLKEEGDKTTKKMFQVSPFMDLAMTYFWQVTPPCNGNDKLLVKIENKRVNDESGTVSKLFDASLVMRRKPFTKASLLRIWGQLPVMTMKVVVTIYWQALKLFIKRVPFIGYQKPS | not soluble
9 | MSSIDIVIPNYNYGRFLKGCVESVLGQNIADMRILIIDNASTDDSVAISRSLAAANPRIETSLRARNLGGHASFNAGIDWARADYFAIICADDVLSPGALARAMEALDNNPGAHMAFGRTAFFRDDAEIASGLHSDADGMRLHRGMDFIANICATGRSPVQGPLAVTRTHIQQHAGHYRPALRHTDDVEMWMRLAVLGDIVELDAVQNFTRIHGANQSAILDNVLAWNAEIEAALESFFGNEGALLADAKTLLRRGRASLSDRAYWCALSNLVRRRPGAGALLAQAFRLRPASALLPPISYLMRRPDALHRIRAAIARRLEHHHHHH | not soluble
10 | MKREQVMGEGNYSLASHHIFGVDNANKMLFSPLDNAKNGMKIYLTDKNKVYTYEIREVKRVTPDRVDEVDDRDGVNEITLVTCEDLAATERIIVKGDLKETKDYSQTSNEILTAFNQPYKQFY | not soluble
11 | KSNYVRVIPNPKVPTDYPAITIEMNDTVSSEQTIEALKSIERVMQEVESQTIADHGQGMIRDVLSYNRSRTEGRVLVPLVDEEIRPFNTFELARRWREAMPVIPGMKSIKIREQSAGGGDRDEFGYLLFGSNINELNQAGRYLIERLQQEEGLFDISSSIDSGSKEVLLSLAPVAYDLGLDLTMIAQQVGGSFYGGEAQRLIRDGEEIKVMVRYPQLTREAFSSLRYAVITTPAGKKVMLGDVVNISEQPGVSTIRREGGYQTVYVYGSIDEELVEPQEIVKIIDDSILPDMKKLHPSVKTELGGDIEEQAAQRNEQ | not soluble
12 | MDEFYISIETVGNNIVERYIDENGKERTREVEYLPTMFRHCKEESKYKDIYGKNCAPQKFPSMKDARDWMKRMEDIGLEALGMNDFKLAYISDTYGSEIVYDRKFVRVANCDIEVTGDKFPDPMKAEYEIDAITHYDSIDDRFYVFDLLNSMYGSVSKWDAKLAAKLDCEGGDEVPQEILDRVIYMPFDNERDMLMEYINLWEQKRPAIFTGWNIEGFDVPYIMNRVKMILGERSMKRFSPIGRVKSKLLQNMYGSKEIYSIDGVSILDYLDLYKKFAFTNLPSFSLESVAQHETKKGKLPYDGPINKLRETNHQRYISYNIIDVESVQAIDKIRGFIDLVLSMSYYAKMPFSGVMSPIKTWDAIIFNSLKGEHKVIPQQGSHVKQSF | soluble
13 | MNLSNLWQSCLLQLQDQVSASDLSTWLRPLQADVVADNHIVLYASNMFVKGWVETHYLAQIQQICQTLAQNPELRISLKEGVKPAPKIVESTPNTSLRSESAVDFQAESSASVKFESHLNTKHLFDNFVEGKSNQLARAVGQKLAQAPGEPSANPFFLYGGTGLGKTHLLHAIGNGILADKPNARVLYIHANNFMQHMVKAVRDNKMDQFKKFYRSLDALLVDDIQFFAEKEKTQEEFFHIFNSLFETGRQIILTSDRYPKEIEKIEERLKSRFGWGLTTAIEPPDLETRVAILLKKAEEHNMNLPEEVAFFIAQRLRTNVRELEGALNRVKAMQDFKGGDIDIDFVRDTLKDILALQERLVTIENIQKVVAEYYRIKVSDLKSKSRARSVTRPRQIAMALAKELTNRSLPEIGRAFDRDHTTVLNACREVPKFREQDNSIQEDWANLIRTLSALEHHHHHH | soluble
14 | MSEDELIIIENLKKIYKIKNVEFPALRGINLKIYKGEFLGIAGPSGSGKTTLLDMIGLLDSPTEGKIIIDKKDVTKFDEDKRAIFRRKNIGFVFQSYNLISYLTVLENVELALAAAGYPVSKRKAKAEEILSMIPGMLELKNKKPNELSAGQQQRVAIARALANDPKILIADEPTANLDSKTGEAIVELLRKLNEEKGVTIVMATHDPMMMKYVDRLVYIRDGLIEKEVIQK | soluble
15 | MNEKKERIIKTSIRLFAKKGFAATTIQEIASECGISKGAFYLHFKSKEALLLSACEYYIGMSMNKMKNIEEDLAGKPPKEVLKKQIGAQFEDFRDHKDFIVLLLTENIIPENQEIKQYFYKVTMETDKLYRNALLVSYGEGIERYVADLSIMARGIVHSYMNVMVFNGELNIDAEEISAFIIERLDDLVQGLSRSALNPIVSKDIFNPMPAGKDQLLEDIQKVKENSTLPEDITVSLDVIEEELTQDKPRKPIIKGMLSNLAGTNDKEVERLRALILSLSQFDHKKSSL | not soluble
16 | MSLTQGSVIFTQNRPGLDEKIFKIYKFKTMSDERDEKGELLSDELRLKAFGKIVRSLSLDELLQLFNVLKGDMSFVGPRPLLVEYLPLYNKEQKLRHKVRPGITGWAQVNGRNAISWQKKFELDVYYVKNISFLLDLKIMFLTALKVLKRSGVSKEGHVTTEKFNGKNEGHHHHHH | not soluble
17 | MAAGVAAWLPFARAAAIGWMPVASGPMPAP | soluble
18 | MVQHLSAQEIIQYISDAKKSTPLKVYVNGHFENVTFPESFKVFGSEHSKVIFCEANEWKQFYQQNHSLITELEIEMDRRNSAIPLKDL | not soluble
19 | SMSNDKTGKSLEQENSERDVEIRDRNYFRKLSLFDDTVIAGAEMIGTSYDVFGKYCNVGSCMNSLFDERKINASEDNFKKVTILGKTLKVPYYIDCYSVGDLKYTNASGESIESYQSNISSKSRIKGNYLFFSASLKVDFDTDSLTDFENAFSRIQYTYDLYILKSSAEALKEFLKESVKTALDKADTEEDMNDLFNTWGSHFLSGVVMGGCAQYSSSTNKYTSNLTNSFDVVAAASFAGFIGLSARTGNSFMEDIKKFRSASNIKTHAIGGDLSRFDPFGGATSADQPSAEEIAAAKKAFEDWKASVPNAPELVNFADSNPLTGIWELCSDRTQKAKLKKHFETVWAPAESAKRRVHADYIDEIIIGINNTNTPPEGYIGLKSTKDENLNSKGNICLFMHKAKYDPNIDNKDCITELKFITVRDKSPEGDWVKIPQDIYISPNQYLYLCYLPAKYSAEKAIKDIQLLCSSCGSSMILPYGYNDVLDERGERANATEDDNVHYLIYSAGWK | soluble
20 | MDKPVDKPAKGKRPAAAGRGSKPRSASAERVRRHREKMKAMGLKPVTIWVPEDYNSPEYKAEIRRECELINADPESEIVLEGMWELADFGDWKA | not soluble
